Reference: US20220073608A1 (JIANGSU HUAIYU PHARMACEUTICAL, published 2022)

Key:
[1] = target: T1, monkey SEMA4D, full length, on CHO-K1 cells (CHO-K1 cSEMA4D) (monkey); assay: FACS, CHO-K1 cSEMA4D cells; Ab 0.107 nM
T1 construct: whole, on cells; also called monkey SEMA4D recombinant cells
Method: (§1) After the cells were counted, they were diluted with PBS to 2×10⁶ cells per milliliter. After washing, 100 μL of diluted and purified leading antibodies was added to each well and the plate was incubated for 1 hour on ice. […] Cells were washed 2 times by centrifugation with FACS buffer. The cells were suspended with 200 μL of FACS buffer, FACS (FACS Verse, purchased from BD) was used to detect and analyze the results.

[2] = target: T2, hSEMA4D ECD-His (His-tagged human SEMA4D protein extracellular domain, Met22-Arg734) (human, UniProt Q92854 22-734); assay: ELISA, coated hSEMA4D ECD-His; Ab 1.33 nM
T2 construct: Expressed in CHO-S cells, purified on Ni column; also called protein immunogen; immunogen A; not shown: His tag of the pCP vector
T2 sequence: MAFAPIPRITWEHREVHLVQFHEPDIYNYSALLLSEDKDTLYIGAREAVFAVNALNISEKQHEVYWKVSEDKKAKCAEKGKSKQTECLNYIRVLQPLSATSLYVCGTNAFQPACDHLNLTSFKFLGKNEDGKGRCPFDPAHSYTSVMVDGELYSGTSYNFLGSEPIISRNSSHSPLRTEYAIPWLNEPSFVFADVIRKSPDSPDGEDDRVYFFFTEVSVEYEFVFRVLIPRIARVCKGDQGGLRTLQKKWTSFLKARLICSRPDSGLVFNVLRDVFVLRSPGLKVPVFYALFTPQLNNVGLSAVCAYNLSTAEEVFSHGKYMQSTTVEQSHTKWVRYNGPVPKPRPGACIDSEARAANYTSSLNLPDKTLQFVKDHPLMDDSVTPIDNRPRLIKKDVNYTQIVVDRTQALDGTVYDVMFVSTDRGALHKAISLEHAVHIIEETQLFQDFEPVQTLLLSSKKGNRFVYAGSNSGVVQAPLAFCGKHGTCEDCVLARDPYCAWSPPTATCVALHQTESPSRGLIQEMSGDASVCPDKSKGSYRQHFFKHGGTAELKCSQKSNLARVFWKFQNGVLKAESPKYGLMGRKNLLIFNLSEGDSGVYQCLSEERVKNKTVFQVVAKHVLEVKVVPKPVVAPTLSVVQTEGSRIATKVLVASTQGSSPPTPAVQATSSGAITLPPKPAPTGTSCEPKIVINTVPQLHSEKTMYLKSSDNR
Method: (§2) First, hSEMA4D ECD-His was diluted with PBS to a final concentration of 1.0 μg/mL, and then was added to a 96-well ELISA plate, 100 μL per well, sealed with plastic film and incubated overnight at 4° C. On the next day, the plate was washed with a plate washing solution, that is, PBS buffer containing 0.05% (v/v) Tween20, for 4 times, and added with blocking solution, that is, PBS buffer containing 0.05% (v/v) Tween20 and 2% (w/w) BSA, blocked at 37° C. for 1 hour. The blocking solution was poured out and the plate was washed 4 times with the plate washing solution. 100 μL of the purified leading antibodies obtained in Examples 1 and 2 was added to each well. After incubation at 37° C. for 1 hour, the plate was washed 4 times with a plate washing solution. 100 μL of horseradish peroxidase (HRP) labeled secondary antibody (purchased from Sigma) was added at a dilution of 1:10000 to each well, and the plate was incubated at 37° C. for 1 hour, and washed 4 times with a plate washing solution. 100 μL TMB substrate was added to each well, and the plate was incubated at room temperature for 5 minutes, and added with 100 μL stop solution (1.0N HCl) to each well. A microplate reader (SpectraMax M5e, purchased from Molecular Device) was used to read the A450 nm value. […] Wherein, the data in the table was the OD450 nm value.

[3] = target: T2, hSEMA4D ECD-His (His-tagged human …); assay: ELISA, coated hSEMA4D ECD-His; Ab 6.67 nM
Method: as §2

[4] = target: T3, mouse SEMA4D, full length, on CHO-K1 cells (CHO-K1 mSEMA4D) (mouse, UniProt O09126 24-861); assay: FACS, CHO-K1 mSEMA4D cells; Ab 0.00427 nM
T3 construct: whole, on cells; also called murine SEMA4D recombinant cells
T3 sequence (looked up): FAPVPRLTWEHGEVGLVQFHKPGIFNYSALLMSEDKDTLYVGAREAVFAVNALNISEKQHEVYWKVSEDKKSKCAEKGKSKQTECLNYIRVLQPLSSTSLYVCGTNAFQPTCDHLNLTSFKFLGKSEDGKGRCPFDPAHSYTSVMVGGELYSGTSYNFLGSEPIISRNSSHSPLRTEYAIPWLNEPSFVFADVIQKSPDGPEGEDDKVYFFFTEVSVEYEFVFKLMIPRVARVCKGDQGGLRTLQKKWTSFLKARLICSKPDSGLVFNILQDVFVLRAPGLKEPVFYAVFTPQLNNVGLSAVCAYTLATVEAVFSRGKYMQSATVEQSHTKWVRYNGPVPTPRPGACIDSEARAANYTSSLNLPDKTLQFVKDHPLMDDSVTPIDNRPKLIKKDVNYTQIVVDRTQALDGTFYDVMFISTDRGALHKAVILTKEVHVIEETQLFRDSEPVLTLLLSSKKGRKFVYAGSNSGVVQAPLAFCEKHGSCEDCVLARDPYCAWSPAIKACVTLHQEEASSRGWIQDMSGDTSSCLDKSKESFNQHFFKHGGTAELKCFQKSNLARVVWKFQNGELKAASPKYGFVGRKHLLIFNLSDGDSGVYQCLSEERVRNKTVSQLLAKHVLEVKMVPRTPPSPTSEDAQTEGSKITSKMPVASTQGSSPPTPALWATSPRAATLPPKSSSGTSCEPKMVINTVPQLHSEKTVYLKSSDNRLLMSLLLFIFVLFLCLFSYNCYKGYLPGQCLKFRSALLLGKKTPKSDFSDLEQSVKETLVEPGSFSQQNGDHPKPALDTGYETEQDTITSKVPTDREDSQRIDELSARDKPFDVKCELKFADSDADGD
Method: as §1

Binder | MFI [1] | OD450 nm [2] | OD450 nm [3] | MFI [4]
37C4F7 (antibody, V domains shown, Mouse monoclonal antibody purified from hybridoma supernatant on protein A) VH: EFQLQQSGPEVVKPGASVKISCKASGYSFTDYNMNWMKQSKGKSLEWIGVINPNYGTTTYNQNFKGKATLTVDQSSSTAYMQLNSLTSEDSAVYYCARDMYYVYAYYTMDYWGQGTSVTVSS VL: DVVMTQTPLSLPVSLGDQASISCRSSQSLVHSNGHTYLHWYLQRPGQSPTLLIYKVSNRFSGVPDRFSGSGSGTDFTLKISRVEAEDLGVYFCSQGTHVPWTFGGGTKLEIK | 237 | 0.91 | 1.19 | 30.5
38H2E3 (antibody, V domains shown, Mouse monoclonal antibody purified from hybridoma supernatant on protein A) VH: EFQLQQSGPEVVKPGASVKISCKASGYSFTDYNMNWMKQSKGKSLEWIGVISPDYGTTTYNQNFKDKATLTVDQSSSTAYMQLNSLTSEDSAVYYCAKDMYYVYAYYTMDYWGHGTSVTVSS VL: DVVMTQTPLSLPVSLGDQASISCRSSQSLVHSNGHTYLHWYLQRPGQSPTLLIYKVSNRFSGVPDRVSGSGSGTDFTLKISRVEAEDLGVYFCSQGTHVPRTFGGGTKLEIK | 210 | 1.1 | 1.46 | 29.9
42B7G2 (antibody, V domains shown, Mouse monoclonal antibody purified from hybridoma supernatant on protein A) VH: QVQLQQSGAELARPGASVKLSCKASGYTFTDYGISWVKQRTGQGLEWIGEIYLRNDNSYYNEKFKGKATLTADKSSNTAYMELRSLTSEDSAVYFCARWGDHGNNYEDAMDYWGQGTSVTVSS VL: DIVLTQSPASLAMSLGKRATISCRASESVSIIGSNLIHWYQQKPGQPPKLLIYHASNLETGVPARFSGSGSRTDFTLTIDPVEEDDVAIYYCLQSRKVPYTFGGGTKLEIK | 793 | 1.87 | 2.07 | 30.3
37F11F9 (antibody, V domains shown, Mouse monoclonal antibody purified from hybridoma supernatant on protein A) VH: EVQLQQSGPVLVKPGASVKMSCKASGYTFTDYYMNWVKQSHGKSLEWIGLINPYSGGSTFNQKFKAKATLTVDKSSSSAYMDLNSLTSEDSAVYYCARVGDGYYGVTHGMDYWGQGTSVTVSS VL: DIVMTPSQKFMSTTVGDRVSITCKASQNVGTAVAWYQQKPGQSPTILIYSASNRYTGVPDRFTGSGSGTDFTLTISNMKSEDLADYFCQQYYIYPFTFAAGTKLELK | 300 | 1.39 | 1.54 | 30.1
32C8F10 (antibody, V domains shown, Mouse monoclonal antibody purified from hybridoma supernatant on protein A) VH: EVQLQQSGAELVRPGASVKLSCTASGFNIKDEYIHWVKQRPEQGLEWIGWIDPANGHTEYASRFQAKATITADTSSNTAYLQLSSLTSEDTAVYYCTTGDYDGFAYWGQGTLVTVST VL: QIVLTQSPAIMSASPGEKVTISCSARSSVSYMYWYQQKPGSSPKPWIYRTSNLASGVPARFSGSGSGTSYSLTISSMEAEDAATYYCQHYHTYPYTFGGGTKLEIK | 1010 | 1.87 | 2.32 | 30.2
31C11G2 (antibody, V domains shown, Mouse monoclonal antibody purified from hybridoma supernatant on protein A) VH: EVQLQQSGAELVRPGASVKLSCTASGFNIKDEYIHWVKQRPEQGLEWIGWIDPANGHTEYASRFQAKATITADTSSNTAYLQLSSLTSEDTAVYYCTTGDYDGFVYWGQGTLVTVST VL: QIVLTQSPAIMSASPGEKVTIFCSARSSVSYMYWYQQKPGSSPKPWIYRTSNLASGVPARFSGSGSGTSYSLTISSMEAEDAATYYCQHYHTYPYTFGGGTKLEIK | 1210 | 1.67 | 1.74 | 31.4
31G10C5 (antibody, V domains shown, Mouse monoclonal antibody purified from hybridoma supernatant on protein A) VH: EVQLQQSGAELVRPGASVKLSCTASGFNIKDDYIHWVKQRPEQGLEWIGWIDPANGHIEYASNFQAKATITADTSSNTAYLQLSSLTSEDTAVYYCTTGDYDGFTYWGQGTLVTVST VL: QIVLTQSPAIMSASPGEKVTISCSARSSVSYMYWYQQKPGSSPKPWIYRTSNLASGVPARFSGSGSGTSYSLTISSMEAEDAATYYCQHYHTYPYTFGGGTKLEIK | 1310 | 1.52 | 1.59 | 29.8
